Target: T1, human CCL8 (residues Gln-24 to Pro-99), expressed in E. coli (human), P80075
T1 chain: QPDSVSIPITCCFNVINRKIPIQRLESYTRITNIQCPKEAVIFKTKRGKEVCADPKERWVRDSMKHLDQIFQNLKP
Assay: native MS; CCL8 alone in 200 mM ammonium acetate pH 6.5; modified Q Exactive, capillary voltage 1.2 kV, source temperature 100 °C
Settings: remark: other sources report otherwise

stoichiometry N: 2
B1: human CCL8 (residues Gln-24 to Pro-99), expressed in E. coli, P80075 24-99 (ligand)
chain: T1 chain
